Assay results taken from publication PMC2879597 (Structure (London, England : 1993), 2010).

Tests used:
[1] = target: T1, IL-22/sIL-22R1 binary complex (UniProt Q9GZX6 34-179; Q8N6P7 16-228)
T1 sequence (looked up) 1: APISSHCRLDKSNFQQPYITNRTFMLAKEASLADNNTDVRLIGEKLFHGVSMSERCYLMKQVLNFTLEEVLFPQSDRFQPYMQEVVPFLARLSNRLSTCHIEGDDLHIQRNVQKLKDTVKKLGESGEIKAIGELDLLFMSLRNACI
T1 sequence (looked up) 2: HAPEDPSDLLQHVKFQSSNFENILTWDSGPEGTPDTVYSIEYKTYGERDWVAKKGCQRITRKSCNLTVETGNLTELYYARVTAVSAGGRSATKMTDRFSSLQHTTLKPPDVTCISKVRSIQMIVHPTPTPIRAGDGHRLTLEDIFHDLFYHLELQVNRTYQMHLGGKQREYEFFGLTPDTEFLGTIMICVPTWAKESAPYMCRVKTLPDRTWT

[2] = target: T2, cmvIL-10/sIL-10R1 binary complex (cytomegalovirus (CMV) | , UniProt P17150 20-175; Q13651 22-235); assay: SPR
T2 sequence 1: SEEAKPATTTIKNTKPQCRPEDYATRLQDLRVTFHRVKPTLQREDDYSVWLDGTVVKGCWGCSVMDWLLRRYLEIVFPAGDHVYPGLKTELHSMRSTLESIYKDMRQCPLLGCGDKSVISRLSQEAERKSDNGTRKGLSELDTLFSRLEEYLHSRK
T2 sequence 2: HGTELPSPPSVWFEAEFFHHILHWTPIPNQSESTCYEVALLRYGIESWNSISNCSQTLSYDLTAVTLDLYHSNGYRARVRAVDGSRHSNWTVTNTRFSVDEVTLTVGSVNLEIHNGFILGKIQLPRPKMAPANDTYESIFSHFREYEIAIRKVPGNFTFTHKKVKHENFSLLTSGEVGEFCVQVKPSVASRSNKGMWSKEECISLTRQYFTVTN

[3] = target: hIL-10/sIL-10R1 binary complex (human | , UniProt P22301 19-178; Q13651 22-235); assay: SPR
[4] = target: T1, IL-22/sIL-22R1 binary complex; assay: SPR

Chain of hIL-10/sIL-10R1 binary complex (P22301 19-178, one chain of several): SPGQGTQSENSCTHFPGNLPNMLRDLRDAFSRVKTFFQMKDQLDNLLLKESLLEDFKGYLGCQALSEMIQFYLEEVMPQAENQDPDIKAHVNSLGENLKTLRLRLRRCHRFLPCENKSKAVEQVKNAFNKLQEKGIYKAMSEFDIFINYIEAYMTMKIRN

B1: sIL-10R2-NQ (soluble extracellular IL-10R2 chain with N49Q, N68Q, N102Q, N161Q) (receptor, human, UniProt Q08334 20-220, looked up)
chain: MVPPPENVRMNSVNFKNILQWESPAFAKGQLTFTAQYLSYRIFQDKCMQTTLTECDFSSLSKYGDHTLRVRAEFADEHSDWVQITFCPVDDTIIGPPGMQVEVLADSLHMRFLAPKIENEYETWTMKNVYNSWTYNVQYWKQGTDEKFQITPQYDFEVLRNLEPWTTYCVQVRGFLPDRNKAGEWSEPVCEQTTHDETVPS
Kd [1]: 14 µM

B2: sIL-10R2 Y140A (on sIL-10R2-NQ) (receptor, human, UniProt Q08334 20-220, looked up)
chain: MVPPPENVRMNSVNFKNILQWESPAFAKGQLTFTAQYLSYRIFQDKCMQTTLTECDFSSLSKYGDHTLRVRAEFADEHSDWVQITFCPVDDTIIGPPGMQVEVLADSLHMRFLAPKIENEAETWTMKNVYNSWTYNVQYWKQGTDEKFQITPQYDFEVLRNLEPWTTYCVQVRGFLPDRNKAGEWSEPVCEQTTHDETVPS
percent of wild-type binding (normalized RU) [2]: ~20 % of WT
percent of wild-type binding (normalized RU) [3]: ~20 % of WT

B3: glycosylated sIL-10R2 (receptor, human, UniProt Q08334 20-220, looked up)
chain: MVPPPENVRMNSVNFKNILQWESPAFAKGNLTFTAQYLSYRIFQDKCMNTTLTECDFSSLSKYGDHTLRVRAEFADEHSDWVNITFCPVDDTIIGPPGMQVEVLADSLHMRFLAPKIENEYETWTMKNVYNSWTYNVQYWKNGTDEKFQITPQYDFEVLRNLEPWTTYCVQVRGFLPDRNKAGEWSEPVCEQTTHDETVPS
modifications: N-linked glycosylation sites N49, N68, N102 and N161 (glycosylated)
Kd [1]: 7 µM

B4: sIL-10R2 Y59A (on sIL-10R2-NQ) (receptor, human, UniProt Q08334 20-220, looked up)
chain: MVPPPENVRMNSVNFKNILQWESPAFAKGQLTFTAQYLSARIFQDKCMQTTLTECDFSSLSKYGDHTLRVRAEFADEHSDWVQITFCPVDDTIIGPPGMQVEVLADSLHMRFLAPKIENEYETWTMKNVYNSWTYNVQYWKQGTDEKFQITPQYDFEVLRNLEPWTTYCVQVRGFLPDRNKAGEWSEPVCEQTTHDETVPS
percent of wild-type binding (normalized RU) [2]: ~50 % of WT
percent of wild-type binding (normalized RU) [4]: ~50 % of WT
percent of wild-type binding (normalized RU) [3]: ~50 % of WT

B5: sIL-10R2 Y56A (on sIL-10R2-NQ) (receptor, human, UniProt Q08334 20-220, looked up)
chain: MVPPPENVRMNSVNFKNILQWESPAFAKGQLTFTAQALSYRIFQDKCMQTTLTECDFSSLSKYGDHTLRVRAEFADEHSDWVQITFCPVDDTIIGPPGMQVEVLADSLHMRFLAPKIENEYETWTMKNVYNSWTYNVQYWKQGTDEKFQITPQYDFEVLRNLEPWTTYCVQVRGFLPDRNKAGEWSEPVCEQTTHDETVPS
percent of wild-type binding (normalized RU) [2]: ~20 % of WT
percent of wild-type binding (normalized RU) [3]: ~20 % of WT

B6: sIL-10R2 Y173A (on sIL-10R2-NQ) (receptor, human, UniProt Q08334 20-220, looked up)
chain: MVPPPENVRMNSVNFKNILQWESPAFAKGQLTFTAQYLSYRIFQDKCMQTTLTECDFSSLSKYGDHTLRVRAEFADEHSDWVQITFCPVDDTIIGPPGMQVEVLADSLHMRFLAPKIENEYETWTMKNVYNSWTYNVQYWKQGTDEKFQITPQADFEVLRNLEPWTTYCVQVRGFLPDRNKAGEWSEPVCEQTTHDETVPS
percent of wild-type binding (normalized RU) [4]: 65 % of WT
